# Columns and labels:
# [1] = molecular target: recombinant human CD36 (human), P16671; experiment: BLI; Octet Qke; hisCD36 immobilised on Ni-NTA biosensors, CIDR domains in solution; kinetics buffer (PBS, 0.02% Tween-20, 100 μg/ml bovine serum albumin, 0.005% sodium azide); association 600 or 900 s, dissociation 300 to 600 s; 1:1 fit
# [2] = molecular target: recombinant human CD36 (human), P16671; experiment: BLI; Octet Qke; hisCD36 immobilised on Ni-NTA biosensors, CIDR domain in kinetics buffer (PBS, 0.02% Tween-20, 100 ug/ml BSA, 0.005% sodium azide); association 600 or 900 s, dissociation 300 to 600 s; double-reference subtracted data fitted to a 1:1 binding model
# Sequence of recombinant human CD36 (human), P16671 (P16671 whole entry, the tested form may be a part): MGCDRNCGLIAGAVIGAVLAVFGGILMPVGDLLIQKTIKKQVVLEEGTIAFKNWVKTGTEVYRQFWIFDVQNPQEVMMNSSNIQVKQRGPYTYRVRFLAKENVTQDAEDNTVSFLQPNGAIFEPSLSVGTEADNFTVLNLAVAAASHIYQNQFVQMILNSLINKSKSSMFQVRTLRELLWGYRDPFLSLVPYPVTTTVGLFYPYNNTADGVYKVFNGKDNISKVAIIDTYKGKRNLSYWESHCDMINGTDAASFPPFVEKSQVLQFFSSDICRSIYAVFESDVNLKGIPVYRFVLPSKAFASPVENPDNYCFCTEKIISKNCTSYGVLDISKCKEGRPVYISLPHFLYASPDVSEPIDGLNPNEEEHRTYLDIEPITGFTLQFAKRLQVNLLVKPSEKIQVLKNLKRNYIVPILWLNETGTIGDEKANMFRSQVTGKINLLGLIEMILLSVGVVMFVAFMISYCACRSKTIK
binder,measurement,setting,value
"P. reichenowi var85 CIDRα5 (domain or fragment, modifications not checked) PECGVVRNGGTFQKNDEKEGDCSGKNEEYKPPEGVTEHDINFLYSGEGHEDMTKKLSGFCKKPEDKKGTRNEQWKCYYEKAENNMCKMTNKGANDNEHAKMMSFNDFFNFWVSHLLTDTINWRKELNRCIKASKSETCEKKCNKNCKCFQKWIEKKKVEWEEVKDQYDEQKDMDIFNPYWILEYDLEEQLLPIMEKNNSDLELIGKMKEIIGKNYKNKELKRTDVNAIDILLKHELKDATTCVENDPQENC",Kd,[1],1.7 nM
same,koff,[2],3.42e-05 s⁻¹
same,kon,[2],19800 M⁻¹ s⁻¹
